Test results published in paper PMC7954794, “Protein context shapes the specificity of SH3 domain-mediated interactions in vivo” (Nature Communications, 2021).

Tested on: Abp1 PPIs
Assay: DHFR-PCA of Abp1 SH3-swapped baits (Fig. 2B-D, S2C, S2F);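 for Protein-protein interaction distance between Abp1 SH3-swapped baits, to ABP1: Euclidean distance between DHFR-PCA score profiles of the baits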;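 for Protein-protein interaction distance between Abp1 SH3-swapped baits, to BEM1-2: Euclidean distance between DHFR-PCA score profiles of the baits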;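 for Protein-protein interaction distance between Abp1 SH3-swapped baits, to BOI1: Euclidean distance between DHFR-PCA score profiles of the baits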;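 for Protein-protein interaction distance between Abp1 SH3-swapped baits, to BZZ1-1: Euclidean distance between DHFR-PCA score profiles of the baits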
Assay type: cell-based, Saccharomyces cerevisiae
Procedure, shortened: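 Yeast DHFR-PCA in which Abp1 baits, carrying their SH3 replaced by CRISPR–Cas9 with one of 27 yeast SH3s or human CTTN, HCLS1 or DBNL SH3s, were mated against 575 SH3-associated DHFR F[3] preys plus 40 negative controls. Four tests were run per PPI. Diploids were selected twice (48 h, 30 °C), then grown 4 days on PCA selection media.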

[1] = number of PPIs, difference, Abp1 SH3-swapped with the listed SH3, Fig2D,S2F

B1: MYO3 (protein, UniProt P36006 1-1272, looked up)
Myosin-3: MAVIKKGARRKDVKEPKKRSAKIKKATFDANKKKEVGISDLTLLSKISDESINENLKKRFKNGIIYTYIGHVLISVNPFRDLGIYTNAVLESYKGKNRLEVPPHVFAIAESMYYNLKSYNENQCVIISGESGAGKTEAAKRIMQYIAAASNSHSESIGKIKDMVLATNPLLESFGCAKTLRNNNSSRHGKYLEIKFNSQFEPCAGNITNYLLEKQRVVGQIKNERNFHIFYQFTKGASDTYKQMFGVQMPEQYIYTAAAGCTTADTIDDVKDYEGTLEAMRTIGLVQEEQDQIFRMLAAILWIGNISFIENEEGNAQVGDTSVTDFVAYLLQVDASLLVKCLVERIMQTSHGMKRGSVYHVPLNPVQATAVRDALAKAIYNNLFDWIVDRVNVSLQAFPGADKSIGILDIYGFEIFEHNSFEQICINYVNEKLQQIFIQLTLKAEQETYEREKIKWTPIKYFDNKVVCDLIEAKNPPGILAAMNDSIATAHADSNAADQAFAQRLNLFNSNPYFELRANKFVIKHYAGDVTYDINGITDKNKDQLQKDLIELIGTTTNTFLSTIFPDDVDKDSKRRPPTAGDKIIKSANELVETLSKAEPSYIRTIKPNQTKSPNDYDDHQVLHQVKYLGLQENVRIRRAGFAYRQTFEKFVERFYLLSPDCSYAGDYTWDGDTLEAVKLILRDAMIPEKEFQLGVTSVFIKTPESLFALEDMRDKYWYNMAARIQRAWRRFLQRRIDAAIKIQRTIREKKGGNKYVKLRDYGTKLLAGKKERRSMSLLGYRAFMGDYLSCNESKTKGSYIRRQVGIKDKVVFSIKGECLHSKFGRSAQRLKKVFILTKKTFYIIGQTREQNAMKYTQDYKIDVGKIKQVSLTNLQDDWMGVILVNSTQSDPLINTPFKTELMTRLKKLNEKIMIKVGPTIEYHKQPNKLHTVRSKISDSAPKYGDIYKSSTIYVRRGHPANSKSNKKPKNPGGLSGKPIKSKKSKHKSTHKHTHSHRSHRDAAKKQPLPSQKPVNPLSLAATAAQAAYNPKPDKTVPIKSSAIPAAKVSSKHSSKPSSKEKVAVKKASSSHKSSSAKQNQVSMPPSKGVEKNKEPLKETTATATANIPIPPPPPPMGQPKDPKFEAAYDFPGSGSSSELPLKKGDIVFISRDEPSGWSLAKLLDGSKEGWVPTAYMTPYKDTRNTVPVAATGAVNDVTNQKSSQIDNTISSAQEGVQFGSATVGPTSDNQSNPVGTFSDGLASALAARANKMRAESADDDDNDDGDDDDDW
Protein-protein interaction distance between Abp1 SH3-swapped baits, to ABP1 (Abp1 bait with swapped SH3, distance to bait with ABP1 SH3, sheet Fig2C): 12.85 | Protein-protein interaction distance between Abp1 SH3-swapped baits, to BBC1 (distance to Abp1 bait with BBC1 SH3, sheet Fig2C): 13.06 | Protein-protein interaction distance between Abp1 SH3-swapped baits, to BEM1-1 (distance to Abp1 bait with BEM1-1 SH3, sheet Fig2C): 17.48 | Protein-protein interaction distance between Abp1 SH3-swapped baits, to BEM1-2 (distance to Abp1 bait with BEM1-2 SH3, sheet Fig2C): 35.25 | Protein-protein interaction distance between Abp1 SH3-swapped baits, to BOI1 (distance to Abp1 bait with BOI1 SH3, sheet Fig2C): 14.63 | Protein-protein interaction distance between Abp1 SH3-swapped baits, to BOI2 (distance to Abp1 bait with BOI2 SH3, sheet Fig2C): 17.97 | Protein-protein interaction distance between Abp1 SH3-swapped baits, to BUD14 (distance to Abp1 bait with BUD14 SH3, sheet Fig2C): 20.78 | Protein-protein interaction distance between Abp1 SH3-swapped baits, to BZZ1-1 (distance to Abp1 bait with BZZ1-1 SH3, sheet Fig2C): 10.1 | Protein-protein interaction distance between Abp1 SH3-swapped baits, to BZZ1-2 (distance to Abp1 bait with BZZ1-2 SH3, sheet Fig2C): 14.12 | Protein-protein interaction distance between Abp1 SH3-swapped baits, to CDC25 (distance to Abp1 bait with CDC25 SH3, sheet Fig2C): 29.41 | Protein-protein interaction distance between Abp1 SH3-swapped baits, to CTTN (distance to Abp1 bait with CTTN SH3, sheet Fig2C): 15.21 | Protein-protein interaction distance between Abp1 SH3-swapped baits, to CYK3 (distance to Abp1 bait with CYK3 SH3, sheet Fig2C): 30.11 | Protein-protein interaction distance between Abp1 SH3-swapped baits, to DBNL (distance to Abp1 bait with DBNL SH3, sheet Fig2C): 10.74 | Protein-protein interaction distance between Abp1 SH3-swapped baits, to FUS1 (distance to Abp1 bait with FUS1 SH3, sheet Fig2C): 21.97 | Protein-protein interaction distance between Abp1 SH3-swapped baits, to HCLS1 (distance to Abp1 bait with HCLS1 SH3, sheet Fig2C): 11.19 | Protein-protein interaction distance between Abp1 SH3-swapped baits, to HOF1 (distance to Abp1 bait with HOF1 SH3, sheet Fig2C): 33.94 | Protein-protein interaction distance between Abp1 SH3-swapped baits, to HSE1 (distance to Abp1 bait with HSE1 SH3, sheet Fig2C): 11.17 | Protein-protein interaction distance between Abp1 SH3-swapped baits, to LSB1 (distance to Abp1 bait with LSB1 SH3, sheet Fig2C): 9.135 | Protein-protein interaction distance between Abp1 SH3-swapped baits, to LSB3 (distance to Abp1 bait with LSB3 SH3, sheet Fig2C): 9.625 | Protein-protein interaction distance between Abp1 SH3-swapped baits, to MYO3 (distance to Abp1 bait with MYO3 SH3, sheet Fig2C): 0.00 | Protein-protein interaction distance between Abp1 SH3-swapped baits, to MYO5 (distance to Abp1 bait with MYO5 SH3, sheet Fig2C): 5.861 | Protein-protein interaction distance between Abp1 SH3-swapped baits, to NBP2 (distance to Abp1 bait with NBP2 SH3, sheet Fig2C): 19.88 | Protein-protein interaction distance between Abp1 SH3-swapped baits, to PEX13 (distance to Abp1 bait with PEX13 SH3, sheet Fig2C): 8.874 | Protein-protein interaction distance between Abp1 SH3-swapped baits, to PIN3 (distance to Abp1 bait with PIN3 SH3, sheet Fig2C): 8.374 | Protein-protein interaction distance between Abp1 SH3-swapped baits, to RVS167 (distance to Abp1 bait with RVS167 SH3, sheet Fig2C): 9.049 | Protein-protein interaction distance between Abp1 SH3-swapped baits, to SDC25 (distance to Abp1 bait with SDC25 SH3, sheet Fig2C): 35.91 | Protein-protein interaction distance between Abp1 SH3-swapped baits, to SHO1 (distance to Abp1 bait with SHO1 SH3, sheet Fig2C): 10.66 | Protein-protein interaction distance between Abp1 SH3-swapped baits, to SLA1-1 (distance to Abp1 bait with SLA1-1 SH3, sheet Fig2C): 31.98 | Protein-protein interaction distance between Abp1 SH3-swapped baits, to SLA1-2 (distance to Abp1 bait with SLA1-2 SH3, sheet Fig2C): 22.64 | Protein-protein interaction distance between Abp1 SH3-swapped baits, to SLA1-3 (distance to Abp1 bait with SLA1-3 SH3, sheet Fig2C): 9.056 | Protein-protein interaction distance between Abp1 SH3-swapped baits, to YSC84 (distance to Abp1 bait with YSC84 SH3, sheet Fig2C): 9.995 | PPIs gained by Abp1 - SH3-dependent PPIs gained by Abp1 [1]: 24 | SH3-dependent PPIs - SH3-dependent PPIs gained by Abp1 [1]: 13 | SH3-dependent PPIs gained by Abp1 (number of PPIs, Abp1 SH3-swapped with the listed SH3, DHFR-PCA, Fig2D,S2F): 4
